test: soluble on expression in E. coli; label from the status in PepcDB or PDB records

Question: For “MGSDKIHHHHHHMPRLIVLNDNTPSRGLINDWGWSILIEGRERFLFDADTNPLVLAHNSKVLNVNLRNLDFAVLSHWHYDHYGGFEYIAELNPGIKFYAPPQGLALAMRWGFQPIAINFGGKIEEEVYTSGVIDGIEQAIGLETSSGLVVIVGCSHPGVDRMVEEVLKVSGYEKAYLVIGGFHSPPIHRLRNLARLSELIAPAHCSGDVAKAFIKRNYKEKYVDVKTGTILEI”, which “soluble on expression in E. coli” value is on record?
Answer: The value was “not soluble”.

Question: Which “soluble on expression in E. coli” value does the source give for “MQAYTQTLIHRLDKLNRQRIERALALMDLQSQRVFHLIPALFQFNHPLIPGYFSADTPFGIHLFEANPIQQQFIDDAQLTLGEPLTPADNPAILGLYTMGSTSSIGQSTSSDLDIWVCVSAQMSCEARDNLSSKCLLITDWAKSQGVEANFFIMNEERFRHNHSEALSGENCGSSQHLLLLDEFYRSAVRLAGKRLLWQIVPPEMEECYDEYVHELCSNGYLNCNEWIDFGKLNRIPAEEYFGANLWQLYKSIDSPYKSVLKAILLEAYSWEYPHTQLLSIDSKRRFFADEPDLYGMDSYYQMLEKVTRYLVRIGDSTRLDLVRRCFYLKTHEKLSREPGVGSMPWRREALRELTSEWQWSADLIAELDNRRHWKVEQVKVVHHALLDALMLSYRNLIQFARRNDITSAISPQDISILARKLYAAFEVLPGKVTLLNPQISPDLHEPDLSFIEVCAGRTNKPGWYLYKQPLQAQRLIGQPYLEHNEYLSKLVAWAFFNGLITESTRLHAVVREAQLDIDKFYQMVSDLRNTFSLRKRRPTMQALANPCEISQLAMFINFEHDPTSELSGKALKVDLKNIDIFSFGAEQKCLVGSVDLVYRNSWQEVRTLHFEGQTAMLDALKTVLGKMHQDALPPESVDVFCYSKNLRGVMRNLVYQLLAECIDLRLKPMEQEKRRRFKALRMGDQMYGLFFERRGVSVQKLENSVDFYRSISTNKLKGSPLLMLDRDQDYPLPAVVDSFASEGLVQFFFEDTEKGFNIYVLDEANRVEVYHQFNGEKDEMIASVNSFYTSMLDDSNKLGAKSINFNLPQYYQIIHPEEGETYVVPYRNDSAVYSKPSQVVNA” here?
Answer: The value was “not soluble”.

Question: With “MNRRDFLKTAGLTGIALGLPGCARSLPFGRDVFPDFGDDARPYLGLATSLREEHDYEARVEGTIPAGLRGTLYRNGPALFDRGGMRKRTLLDGDGMVQAFRFGDRGIRYANRFVRTRKFVEEEAAGRFLHPTWSTQAPGGIWTNVWPTERLLSQAGITVFPWRGRLYAFDESSFPYELDPDTLATVGETTFGLPRDLTTYSAHGKFDPVTGEWLHFGIRYGPRTFVHLTTFNADGTLRRHRALELPRAIYMHDWFVTERHVVFHLHPVEIAYWPFLLGIRSMAESLRWRPERGTILMVAERDGEAPPRLVETEACYLWHTFNAWEERGKITADFVGYRNPDHFISDDPVITAVMLGRRGTYSYPGEVMRYRIDPARGTAAREVLHQGSCEWPRIDERLRCRPHRTGYMLRCLPGEFFWSIVMGLDPVTGRTDEYSFGRGVYCTEPVFAPRPDTLAGGPGWLLVELYDSRTRTSSLAILDADRIADGPLALVRLTHHVPFSYHGWWQPASLEHHHHHH” as the sequence, how does the “soluble on expression in E. coli” value read?
Answer: Its value is “not soluble”.

Question: Which “soluble on expression in E. coli” value does the source give for “MLSVFPLAGMSLASLHYSTHRVDQTQVYMVAAPMADYRVVMTEPAASGQDTYLETTAAFARRTGAVAAMNTNFFRWLNAQSLRSFQDYQKWIMGESNPEGISYRALRQTCLSGRGTIPAGVAGAYIVNGRVVRPYEGGYSGIVNFPAQGGIEFYRGRLPEQPFNVVSGSQQLLDGGRKLPVDGSDRTSPKAILGRRGNEYVFVVSDGRGNGGSPGLSFLQLQDFLLQQGVTEATAMDGGESATLVVEGQVKNHPRDRYCELARWLPAPALTLINLEEEAQETAMAMGRSLRPVGANIGLVPRHRPPAFLSFAFWEFLQQRLLARLRAWRDAVLEHHHHHH” here?
Answer: The value was “not soluble”.

Question: Which “soluble on expression in E. coli” value does the source give for “MSLKPGTLISMMTEEEANSITHLTLTGKLNAEDFRHLRDEFPSLKVLDISNAEIKMYSGKAGTYPNGKFYIYMANFVPAYAFSNVVNGVTKGKQTLEKVILSEKIKNIEDAAFKGCDNLKICQIRKKTAPNLLPEALADSVTAIFIPLGSSDAYRFKNRWEHFAFIEGEPLETTIQVGAMGKLEDEIMKAGLQPRDINFLTIEGKLDNADFKLIRDYMPNLVSLDISKTNATTIPDFTFAQKKYLLKIKLPHNLKTIGQRVFSNCGRLAGTLELPASVTAIEFGAFMGCDNLRYVLATGDKITTLGDELFGNGVPSKLIYKEGHHHHHH” here?
Answer: The value was “not soluble”.

Question: With “MASLCNSIIGWIKNDKEVRLRKRGDTSRRDAVEAGFEPRDTVPRCHSTQSLRDVQRVRSYNNSQFQASDLSLNPNGSIRAACDSTSGSVAPTAVVNPARNHVISHRQQHHTSYEKDLIPHHNIDVDRRRSLQALNGSSALYQLNNGGSPNGVRSQFSPSDLSIHTPVHHVGSRVRVSSVNQICDSNSAPQFSIDQRRSVHNIGNPVRNSFVDGIKTTSTPKNQIAVAPLAHKSRHLSESRDEMRGGAERRGSGGQMNLPAYTNYLIRHSGEERLVDGPVTNASDARIAYLEKRIRELELTQKEQSSHSTPSQSRHSSSKSSHFNGSSNLSTSEQLRLQEMSDELANKDRKVTSLESKLLKAYQRIERLNEEYDGKIKNLMYDSERARDDLTRCVDKIQQLENELDETRAAVQNGDHANEQEYHELRDKIWKQERELQESRTLLTRLREKEAEFERMRSEKGYLELKNENLNKKLEAKKRAVEELERSVSTLRLEQTICQQSCSSGSTPLADEMEIMSDIRPSLARPYTKAHSTLGSHNMSPLSHSKSSGLTKSFSNFALNSSKQRDDITANMSRSIREQNRHITMCRAMVVCLKDTVDRMARGENPDVARLLGVKLNVMSESEMEDDEDHEADASQPFSMMSAESALSKQCGKLADLDKDLDTIRCQLADWHGQTNAEGDGDRDVCRVQ” as the sequence, how does the “soluble on expression in E. coli” value read?
Answer: The value was “not soluble”.

Question: For “MVQNNDVDGAFGLLNRLMDSEGMLKIIRRTQFYQKPYMQRKTLSMEASTAIFNEDMNRKMKFLVRKNRPDKHPGQVTS”, which “soluble on expression in E. coli” value is on record?
Answer: Its value is “not soluble”.

Question: For “MGSDKIHHHHHHMNRSGTISGNNFQSTAAQTTAGPRESRLAASVCRIAPFYDFILRRKIMRQKIPLLASFKLTFRCNLSCLACPFHQRAGEEKANMSWSLARASLDALKHQGTLIVVFEGGEPFLWRDGRHDLHDLVNYAGRLFPRVAVTTNGTFPLDVPADILWVSLDGLKETHDRLRSGSFDRVWENLEQCSHGRLFVHFTINRENRHDIRPLLEKLKGIPAFRGMTVQLFYPYGQGEASLALSDLERKTVLEEVVAMKKQGFPILNSAGRLTAMINNDWRCHDDILINVDPDGAITPGCYVKSRGRINCRNCGFSPVSEASGALDLFPGSLKAGWSIFLK”, which “soluble on expression in E. coli” value is on record?
Answer: The value was “not soluble”.

Question: For “GKIILFEDVEFGGKKLELETSVSDLNVHGFNDIVSSIIVESGTWFVFDDEGFSGPSYKLTPGKYPNPGSWGGNDDELSSVKQQ”, which “soluble on expression in E. coli” value is on record?
Answer: The value was “soluble”.

Question: Which “soluble on expression in E. coli” value does the source give for “MAHHHHHHMSLRPDVFGQPPIVDRFARFAIARRGSSSSHNNNNNNNNNNSGSVSPLERGGVHGNDKSPAAAPVAAGVGSKAGVRESSAKSRLSLGVSNTDVVLESPISSNAAEATSEVMDVTSTAQADDEEEDEVETLNRFMADQSDETATRTHKRTLFSLNLTLAEVMETAMHFSQMRPTSPEEYKKAMAMIRAADDARHERIAAFRSATPTTGSHNGMGSSPSSSLTTTPTVGYPDAALHIEEPMHFGVVMLHIRFALRKIIHASMRRLAAQQGPKTLSMMVEMLREVDPKWHQNQNNNSGELRRQSDSMLAGTLRVLVARSVVCVDLVGEAGDLLGGGAGGLAISAVGLQRTERALHLVQRAKRSATGSGGNTGDHVSRRRPQRHRGDGGARTSSSGEKRSIS” here?
Answer: Its value is “not soluble”.

Question: With “MKNIYVETYGCALNRADTYVMMTLLKSEGYNFVENPENADIIILNTCAVRLETEERMKQRIKELNTLSKKLVVAGCMSSAEPATVLSIAPNASLIGPQSVERIVDIVKSEERKIVIEGDRALITPRTFDGKIAIIPVADGCAGNCSFCITKLARRKLRSYPLREIVNAARDAIQSGAREIELTGQDTAAYGLDLGGSISLVDVVNKVADIDGDFMIRIGMMTPEQAMRIMDDLIEAIRNPKVYKFIHLPVQSGDDRVLKLMNRKYTVDEYKELISEIRHKIPFVNITTDIIVGHPGEDEEAFNNTLLLMKELRFERIHLAMYSIRPNTRSASMPQVPDSIKKKRIQIANKLYEDLALSIHLDYVGSTSRVITTELGRKGSVIGRLMNYIPVVIRSENVELGKWYDVKITEASFYDLRGILALEHHHHHH” as the sequence, how does the “soluble on expression in E. coli” value read?
Answer: Its value is “soluble”.

Question: With “HMTMEQFLTSLDMIRSGCAPKFKLKTEDLDRLRVGDFNFPPSQDLMCYTKCVALMAGTVNKKGEFNAPKALAQLPHLVPPEMMEMSRKSVEACRDTHKQFKESCERVYQTAKCFSENADGQFMWP” as the sequence, how does the “soluble on expression in E. coli” value read?
Answer: Its value is “soluble”.

Question: Which “soluble on expression in E. coli” value does the source give for “MSLRIRVPATTANLGPGFDSCGLALTLYLTLDIGAEADSWYIEHNIGGGIPHDETNVIIETALNLAPNLTPHHLVMTCDIPPARGLGSSSAAVVAGIELANTLAELNLSKEEKVRIAAEIEGHPDNVAPAVLGNWVVGAKLDGEDFYVRHLFPDCALIAFIPKAELLTSESRGVLPDTLPFKEAVQASSIANVMIAAILRNDMTLAGEMMERDLWHEKYRSQLVPHLAQIRDVAKNQGAYAACLSGAGPTVLVFAPRNLANKLQTSLQTLEIDADVLLLDVEGSGAEVFREGHHHHHH” here?
Answer: Its value is “soluble”.

Question: With “MQLFDLSLEELKKYKPKKTARPDFSDFWKKSLEELRQVEAEPTLESYDYPVKGVKVYRLTYQSFGHSKIEGFYAVPDQTGPHPALVRFHGYNASYDGGIHDIVNWALHGYATFGMLVRGQGGSEDTSVTPGGHALGWMTKGILSKDTYYYRGVYLDAVRALEVIQSFPEVDEHRIGVIGGAQGGALAIAAAALSDIPKVVVADYPYLSNFERAVDVALEQPYLEINSYFRRNSDPKVEEKAFETLSYFDLINLAGWVKQPTLMAIGLIDKITPPSTVFAAYNHLETDKDLKVYRYFGHEFIPAFQTEKLSFLQKHLLLST” as the sequence, how does the “soluble on expression in E. coli” value read?
Answer: Its value is “soluble”.

Question: Which “soluble on expression in E. coli” value does the source give for “MGSDKIHHHHHHMADGAEFKVYTQRFIMEKIAYYLGQYHSLEENNAFWGEGFTEWHNVAKARPLFPSHRQPVLPGKLGFYDLRNNDTIEEQVALADSFGVTAFCHWHYWFGGKRVLYRPFDSMLKIQNSPVKVMLGWANESWTGIWHGLSDQVIFEQPYNKIELNEHAKLLADYFRHENYLKVNGKAAFLIYKPRKIPESKSYLQLLRQKVYENCGLDMYIIGTWGPGRLEVIHSADELGLDALVANNVGATFKSELSRKLYNGFWTAAKSLGLGPELRNYASTVKTLEYAHQNISGTVHSTIVTGWDNSPRSNRRALVLTNFNENSFKYAIDIAISNEKNNENKLLFIKSWNEWAEGNTLEPRFKEDWSLGKVLKKQIIKHDV” here?
Answer: Its value is “not soluble”.

Question: For “MGSDKIHHHHHHMIIRAGYNIAFQCFQETPINLLLSVHPSRAQHVIGEHVIKFSPDVPSHDFTDMFGNVCTRIVAPAGRIDISNDFLIEDTGLPDEVAPGAREIPVAELPDEVMVYLLGSRYCDTDKLATLAWSMFGGIPSGWQRVQAIVDYVHNHITFGYQFARNDRTASEGHAEQIGVCRDFAHLAVTLCRCMNIPARYCTGYLGDIGVPQDPAPMDFSAWFEVYLDGRWYTFDARHNHPRIGRIVIARGRDAADVAISTSFGTANLLNFEVITHEVTDQAAVTDARLQKVA”, which “soluble on expression in E. coli” value is on record?
Answer: Its value is “not soluble”.

Question: With “QVQLQQSGPELVKPGALVKISCKASGYTFTNYDIHWVKQRPGQGLEWIGWIYPGDGSTKYNEKFKGKATLTADKSSSTAYMHLSSLTSEKSAVYFCAREWAYWGQGTLVTVSAAKTTAPSVYPLAPGCGDTTGSSVTLGCLVKGYFPEPVTLTWNSGSLSSGVHTFPAVLQSDLYTLSSSVTVTSSTWPSQSITCNVAHPASSTKVDKKIEPRGPTIKPC” as the sequence, how does the “soluble on expression in E. coli” value read?
Answer: Its value is “soluble”.

Question: Which “soluble on expression in E. coli” value does the source give for “SQKQKALLQRVETDITSVVDNFTQIVNVSRVSDPPVKNSQETYMMEMRASRMATQVLLKDFLMSLWSVVNLLPHQWWQVQAADSLLKLVSELKQTAIFSGFASLNDHVEQRIEEFDQEAEKTNRLLARIADDASANLKELESHYYSSAQRLTLDI” here?
Answer: The value was “not soluble”.
